Measured values published in publication PMC6785131.

Substrate: N[C@@H](CS)C(=O)O
Experiment: purified protein
Assay type: biochemical, Salmonella enterica
Conditions: 2 mM ATP, 2 mM PPi, 10 mM MgCl2, 30 mM KCl, 100 mM HEPES pH 7.5, 37 °C, 25 nM enzyme, 50 μM-2 mM Cys

B1: CysRS^chr (Salmonella enterica subsp. enterica serovar Typhimurium str. LT2) (protein)
chain: MLKIFNTLTRQKEEFKPIHAGEVGMYVCGITVYDLCHIGHGRTFVAFDVVARYLRFLGYKLKYVRNITDIDDKIIKRANENGESFVALVDRMIAEMHQDFDALNILRPDSEPRATHHIQEIIELTRTLIEKGHAYVADNGDVMFDVPTDPTYGQLSRQDLEQLQAGARVDVVDVKRNPMDFVLWKMSKEGEPSWPSPWGEGRPGWHIECSAMNCKQLGNHFDIHGGGSDLMFPHHENEIAQSTCAHDGEYVNYWMHSGMVMVDREKMSKSLGNFFTVRDVLKYYDAETVRYFLMSGHYRSQLNYSEENLKQARASLERLYTALRGTDKSAAPAGGEAFEARFVEAMNDDFNTPEAYSVLFDMAREVNRLKGEDMTAANAMASHLRKISGVLGLLEQEPDVFLQSGAQADDGEVAEIEALIQQRLDARKAKDWAAADAARDRLAEMGIILEDGPQGTTWRRK
notes: tag removal not mentioned
  Km: 14 ± 3 µM
  kcat: 1.1 ± 0.2 s⁻¹
